The experiment has as its target FLAG-tagged Sig-1R, Q99720. Put plainly: co-immunoprecipitation (IP: V5, Western blot for FLAG, quantified). As to conditions: chain shown with the change; n = 4; parent: est. 100; read off a plot.

Chain of FLAG-tagged Sig-1R, Q99720 (Q99720 whole entry): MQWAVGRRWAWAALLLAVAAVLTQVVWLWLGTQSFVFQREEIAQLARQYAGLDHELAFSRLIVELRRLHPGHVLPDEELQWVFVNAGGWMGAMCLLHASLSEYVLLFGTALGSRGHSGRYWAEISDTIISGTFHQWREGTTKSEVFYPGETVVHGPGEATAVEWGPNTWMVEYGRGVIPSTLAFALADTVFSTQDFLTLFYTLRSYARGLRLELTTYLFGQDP

B1: ΔIRE1-V5/His (ER lumenal domain of human IRE1), O75460 D123P (protein)
chain: IFGSTSTVTLPETLLFVSTLDGSLHAVSKRTGSIKWTLKEDPVLQVPTHVEEPAFLPDPNDGSLYTLGSKNNEGLTKLPFTIPELVQASPCRSSDGILYMGKKQPIWYVIDLLTGEKQQTLSSAFADSLCPSTSLLYLGRTEYTITMYDTKTRELRWNATYFDYAASLPEDDVDYKMSHFVSNGDGLVVTVDSESGDVLWIQNYASPVVAFYVWQREGLRKVMHINVAVETLRYLTFMSGEVGRITKWKYPFPKETEAKSKLTPTLYVGKYSTSLYASPSMVHEGVAVVPRGSTLPLLEGPQTDGVTIGDKGECVITPSTDVKFDPGLKSKNKLNYLRNYWLLIGHHETPLSASTKMLERFPNNLPKHRENVIPADSEKKSFEEVINLVDQTSENAPTTVSRDVEEKPAHAPARPEAPVDSMLKD
B1: the percent of parent is 190%.

Source of the values: paper PMC3799859.
